Measured values as given in PMC4484057.

Legend:
Gαi1-intYFP = Gαi1-intYFP (UniProt P63096); test: FRET or BRET; living HeLa cells cotransfected with Gαi1-intYFP, CFP-Gβ1 and Gγ2, 0.2% FBS overnight, before stimulation (t0); confocal, FRET efficiency at the plasma membrane; also Daple-depleted cells with or without Wnt5a, and Wnt3 stimulation, where FRET continued
GST-FZD7-CT = GST-FZD7-CT (UniProt O75084); test: pull-down; as a19, His-Gαi3 (GDP) with GST-FZD7-CT in the presence of His-Daple-CT WT

Chain of His-Gαi3 (P08753 whole entry): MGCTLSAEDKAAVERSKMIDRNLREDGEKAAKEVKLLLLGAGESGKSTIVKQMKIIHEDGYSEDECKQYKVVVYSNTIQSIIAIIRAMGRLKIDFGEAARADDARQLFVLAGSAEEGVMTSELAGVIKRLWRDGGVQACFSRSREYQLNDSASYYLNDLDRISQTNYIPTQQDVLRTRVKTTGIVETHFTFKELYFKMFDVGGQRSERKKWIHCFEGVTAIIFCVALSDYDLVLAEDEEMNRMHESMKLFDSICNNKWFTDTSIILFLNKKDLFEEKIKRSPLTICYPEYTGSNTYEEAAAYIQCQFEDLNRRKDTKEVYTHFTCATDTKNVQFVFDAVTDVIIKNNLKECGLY
Chain of Gαi1-intYFP (P63096 whole entry): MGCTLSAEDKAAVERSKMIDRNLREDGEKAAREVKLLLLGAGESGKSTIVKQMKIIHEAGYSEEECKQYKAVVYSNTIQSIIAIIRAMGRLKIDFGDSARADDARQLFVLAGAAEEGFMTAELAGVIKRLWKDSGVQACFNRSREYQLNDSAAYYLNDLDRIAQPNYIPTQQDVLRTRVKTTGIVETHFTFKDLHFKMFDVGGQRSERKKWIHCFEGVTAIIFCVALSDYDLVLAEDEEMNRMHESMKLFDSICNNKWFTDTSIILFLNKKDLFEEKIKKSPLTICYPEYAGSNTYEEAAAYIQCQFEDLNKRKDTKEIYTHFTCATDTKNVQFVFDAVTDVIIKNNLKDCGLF

FRET efficiency (Gαi1-intYFP)	fold increase of binding in the presence of m2 (GST-FZD7-CT) [fold]	Substance
0.36	–	CFP-Gβ1 with Gγ2 (from UniProt P62873 1-340; P59768 1-71) (complex)
–	5	His-Gαi3 (from UniProt P08753 1-354) (natural protein)
